B1: P. aeruginosa RdgC K146A mutant (natural protein, Pseudomonas aeruginosa PAO1, UniProt Q9HYX7 1-306, looked up)
chain: MWFRNLLVYRLTQDLQLDADSLEKALGEKSARPCASQELTTYGFTAPFGKGPDAPLVHVSQDFFLISARKEERILPGSVVRDALKEKVDEIEAQQMRKVYKKERDQLKDEIVQTLLPRAFIRRSSTFAAIAPSLGLILVDSASAKAAEDLLSTLREALGSLPVRPLSVKVAPTATLTDWVKTQEAAGDFHVLDECELRDTHEDGGVVRCKRQDLTSEEIQLHLTAGKLVTQLSLAWSDKLSFVLDDKLAVKRLRFEDLLQEQAEKDGGEDALGQLDASFTLMMLTFAEFLPALFEALGGEEIPQGV
B2: P. aeruginosa RdgC R81D mutant (natural protein, Pseudomonas aeruginosa PAO1, UniProt Q9HYX7 1-306, looked up)
chain: B1 chain with R81D, A146K
B3: P. aeruginosa RdgC Q212A mutant (natural protein, Pseudomonas aeruginosa PAO1, UniProt Q9HYX7 1-306, looked up)
chain: B1 chain with A146K, Q212A
B4: P. aeruginosa RdgC R208A mutant (natural protein, Pseudomonas aeruginosa PAO1, UniProt Q9HYX7 1-306, looked up)
chain: B1 chain with A146K, R208A
B5: P. aeruginosa RdgC R4A mutant (natural protein, Pseudomonas aeruginosa PAO1, UniProt Q9HYX7 1-306, looked up)
chain: B1 chain with R4A, A146K
B6: P. aeruginosa RdgC R211D mutant (natural protein, Pseudomonas aeruginosa PAO1, UniProt Q9HYX7 1-306, looked up)
chain: B1 chain with A146K, R211D
B7: P. aeruginosa RdgC R252A mutant (natural protein, Pseudomonas aeruginosa PAO1, UniProt Q9HYX7 1-306, looked up)
chain: B1 chain with A146K, R252A
B8: P. aeruginosa RdgC R198A mutant (natural protein, Pseudomonas aeruginosa PAO1, UniProt Q9HYX7 1-306, looked up)
chain: B1 chain with A146K, R198A
B9: P. aeruginosa RdgC F120A mutant (natural protein, Pseudomonas aeruginosa PAO1, UniProt Q9HYX7 1-306, looked up)
chain: B1 chain with F120A, A146K
B10: P. aeruginosa RdgC R122D mutant (natural protein, Pseudomonas aeruginosa PAO1, UniProt Q9HYX7 1-306, looked up)
chain: B1 chain with R122D, A146K
B11: P. aeruginosa RdgC K70D mutant (natural protein, Pseudomonas aeruginosa PAO1, UniProt Q9HYX7 1-306, looked up)
chain: B1 chain with K70D, A146K
B12: Pseudomonas aeruginosa RdgC (recombination-associated DNA-binding protein), wild type (natural protein, Pseudomonas aeruginosa PAO1, UniProt Q9HYX7 1-306, looked up)
chain: B1 chain with A146K

Substitutions are numbered along the chain they refer to. In names and notes the source's numbering stands.

One series concerns the molecule itself. Put plainly: SEC. A general note: Size exclusion chromatography separates by hydrodynamic size, large species first.
With B1, the binding result is “binds”.

B2: the binding result was “binds”.

With B3, the binding result is “binds”.

For the protein B4, the binding result is listed as “binds”. Regarding B5, the binding result is given as “binds”. As for B6, the binding result is listed as “binds”. Take B7: the binding result is on record as “binds”. Consider B8, for which the binding result is recorded as “binds”. Still for that read-out and setting: as for B9, the entry is “binds”; as for B10, “binds”; as for B11, “binds”.

The next series deals with the molecule itself. Description: crystal structure.
Regarding B12, the stoichiometry N (in general, the number of molecules, sites or subunits per partner or assembly) came out at 2.

Source of the values: paper PMC1885664 (Nucleic Acids Research, 2007).
